Reference: IntAct's records for PubMed 8114715

What was measured:
lck_human LCK [1] = target: lck_human LCK (UniProt P06239)
lck_human LCK [2] = target: lck_human LCK (UniProt P06239); remark: listed apart in the source
lck_human LCK [3] = target: lck_human LCK (UniProt P06239); remark: listed apart in the source

lck_human LCK, sequence (P06239 whole entry, looked up): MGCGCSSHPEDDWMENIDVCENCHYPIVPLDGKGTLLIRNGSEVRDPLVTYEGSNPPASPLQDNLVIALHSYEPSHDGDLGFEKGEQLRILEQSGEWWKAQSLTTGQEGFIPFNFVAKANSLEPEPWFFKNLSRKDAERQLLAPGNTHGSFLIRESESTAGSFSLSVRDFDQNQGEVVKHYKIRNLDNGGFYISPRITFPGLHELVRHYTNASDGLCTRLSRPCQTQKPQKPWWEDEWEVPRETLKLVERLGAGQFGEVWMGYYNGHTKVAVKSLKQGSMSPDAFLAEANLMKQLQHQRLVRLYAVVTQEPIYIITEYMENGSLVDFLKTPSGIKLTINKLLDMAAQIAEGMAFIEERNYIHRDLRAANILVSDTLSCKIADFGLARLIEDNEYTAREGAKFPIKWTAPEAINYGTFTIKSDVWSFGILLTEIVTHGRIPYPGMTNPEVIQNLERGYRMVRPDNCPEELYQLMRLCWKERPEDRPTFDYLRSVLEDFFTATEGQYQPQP
Tyrosine-protein phosphatase non-receptor type 6 (Homo sapiens), P29350 Y536F, sequence (P29350 whole entry Y536F): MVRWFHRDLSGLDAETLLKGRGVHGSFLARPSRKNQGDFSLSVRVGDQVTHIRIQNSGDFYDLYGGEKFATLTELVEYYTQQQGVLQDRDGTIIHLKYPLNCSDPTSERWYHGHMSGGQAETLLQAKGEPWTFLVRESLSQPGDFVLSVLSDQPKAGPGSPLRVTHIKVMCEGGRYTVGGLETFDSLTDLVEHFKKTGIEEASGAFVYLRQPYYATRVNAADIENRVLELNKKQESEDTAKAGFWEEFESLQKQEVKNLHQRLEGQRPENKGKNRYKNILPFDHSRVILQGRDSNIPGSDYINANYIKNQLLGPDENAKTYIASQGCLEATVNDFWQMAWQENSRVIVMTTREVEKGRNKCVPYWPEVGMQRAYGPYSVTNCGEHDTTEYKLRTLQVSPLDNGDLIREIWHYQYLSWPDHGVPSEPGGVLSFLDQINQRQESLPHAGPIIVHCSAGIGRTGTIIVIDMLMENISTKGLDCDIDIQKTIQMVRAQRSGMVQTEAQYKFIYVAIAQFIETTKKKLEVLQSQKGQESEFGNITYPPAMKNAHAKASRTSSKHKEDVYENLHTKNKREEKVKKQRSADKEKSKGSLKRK
Tyrosine-protein phosphatase non-receptor type 6 (Homo sapiens), P29350 Y541F, sequence (P29350 whole entry Y541F): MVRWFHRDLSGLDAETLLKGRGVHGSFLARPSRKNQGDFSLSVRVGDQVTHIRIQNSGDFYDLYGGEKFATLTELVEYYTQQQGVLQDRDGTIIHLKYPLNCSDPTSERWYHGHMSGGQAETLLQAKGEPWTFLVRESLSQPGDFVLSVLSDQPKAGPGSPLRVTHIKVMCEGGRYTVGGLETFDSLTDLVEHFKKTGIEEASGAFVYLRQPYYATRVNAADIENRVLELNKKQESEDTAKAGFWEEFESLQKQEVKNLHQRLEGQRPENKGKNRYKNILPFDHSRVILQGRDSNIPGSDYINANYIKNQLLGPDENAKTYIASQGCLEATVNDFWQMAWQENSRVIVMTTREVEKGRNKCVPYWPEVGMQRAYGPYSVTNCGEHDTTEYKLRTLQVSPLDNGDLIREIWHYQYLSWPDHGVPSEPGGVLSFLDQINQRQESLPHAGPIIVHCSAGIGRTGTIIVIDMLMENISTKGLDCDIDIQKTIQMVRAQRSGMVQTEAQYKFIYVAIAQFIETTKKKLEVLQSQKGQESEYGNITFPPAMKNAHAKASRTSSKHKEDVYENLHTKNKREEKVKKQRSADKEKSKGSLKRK
Tyrosine-protein phosphatase non-receptor type 6 (Homo sapiens), P29350 Y564F, sequence (P29350 whole entry Y564F): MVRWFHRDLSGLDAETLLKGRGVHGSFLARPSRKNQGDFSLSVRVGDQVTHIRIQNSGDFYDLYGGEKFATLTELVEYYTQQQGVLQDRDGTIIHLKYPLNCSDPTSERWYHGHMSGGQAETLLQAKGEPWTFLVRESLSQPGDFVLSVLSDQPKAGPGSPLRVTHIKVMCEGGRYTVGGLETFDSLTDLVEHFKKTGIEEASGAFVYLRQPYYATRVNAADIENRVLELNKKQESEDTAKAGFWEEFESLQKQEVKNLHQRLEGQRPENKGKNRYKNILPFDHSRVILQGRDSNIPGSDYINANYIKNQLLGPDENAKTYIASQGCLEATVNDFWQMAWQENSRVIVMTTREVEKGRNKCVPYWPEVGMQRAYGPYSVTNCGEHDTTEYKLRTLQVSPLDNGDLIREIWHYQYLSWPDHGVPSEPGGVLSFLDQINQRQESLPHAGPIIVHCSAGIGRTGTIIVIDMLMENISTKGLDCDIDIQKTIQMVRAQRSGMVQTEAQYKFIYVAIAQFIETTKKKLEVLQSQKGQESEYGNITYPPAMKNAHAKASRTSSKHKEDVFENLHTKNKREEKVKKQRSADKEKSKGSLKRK

Tyrosine-protein phosphatase non-receptor type 6 (Homo sapiens), P29350 Y536F
effect of a mutation on the interaction (lck_human LCK [1]): decreasing interaction

Tyrosine-protein phosphatase non-receptor type 6 (Homo sapiens), P29350 Y541F
effect of a mutation on the interaction (lck_human LCK [2]): decreasing interaction

Tyrosine-protein phosphatase non-receptor type 6 (Homo sapiens), P29350 Y564F
effect of a mutation on the interaction (lck_human LCK [3]): decreasing interaction
